Test results published in the supplement of paper PMC9170038.

Test system: MS2 coat protein
Test: apparent KD of MS2 coat protein; designed switch direction (-1 OFF switch, 1 ON switch): -1; higher = weaker reporter binding
Method in brief: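 Each step of the titration lasted 0.8–1.5 h at the lowest concentration and 10–20 min at the highest. The protein, SNAP-549-labelled MS2 coat protein, went from 0.7 or 1.5 nM doubling to 3 µM over RNA switches transcribed on Illumina chips by stalled E. coli RNA polymerase. Normalised cluster fluorescence was curve-fitted, and the per-design median over clusters is given as apparent KD.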

[1] = input ligand: microRNA oligo, concentration not stated
[2] = Eterna round: R95, input ligand: FMN 200 uM
[3] = Eterna round: R95, input ligand: microRNA oligo, concentration not stated
[4] = Eterna round: R95, input ligand: none

Sequence	apparent KD of MS2 coat protein (input ligand: FMN 200 uM) [nM]	apparent KD of MS2 coat protein [1] [nM]	apparent KD of MS2 coat protein (input ligand: none) [nM]	apparent KD of MS2 coat protein [2] [nM]	apparent KD of MS2 coat protein [3] [nM]	apparent KD of MS2 coat protein [4] [nM]
AUUAUAAAUGUAGGAUAUCUGCACGUGUAGUGCAGAGAAGGACAUGAGGAUCACCCAUGUAGAUCAAUAAUAAUUAAUUUAAUU [ENG1/5-B3] (Eterna round: R96, puzzle: Exclusion NG 1)	223	33.4	49.2	–	–	–
AGUUGGCGAGGAUAUACAUGAGGAUCACCCAUGUGAGAGAUACUAGUGAGGUCGAUUAGUAGAAGGCGCUGACG [Mat - Exclusion 3 - Mod of JL D76] (puzzle: Exclusion 3)	–	–	–	1170	25.3	49.3
ACACUGCGAGGAUAUACAUGAGGAUCACCCAUGUAUCGGUAGUCAAGGUUAAUUUAAGGUAGAAGGCGCGUAUU [JR_Ex3_Sub007] (Eterna round: R97, puzzle: Exclusion 3)	26.4	–	24	–	–	–
UUCCGACAUGAGGAUCACCCAUGUAAGGAUAUGCACUAGAGGACAAACCCUCUUAACGGCAGAAGGUGCAGGGA [Solaleisra] (Eterna round: R97, puzzle: Exclusion 1)	40.9	–	18	–	–	–
AGUGUGUGGCAGGAUAUUCUAAUCGUGAGUCGGGAAGAAGGGUCUACAUGAGGAUCACCCAUGUGAGCGGUUGA [Ex6 #45] (Eterna round: R97, puzzle: Exclusion 6)	219	–	245	–	–	–
GCAGGCUUUUGCUCGCCUUACAUGAGGAUCACCCAUGUGGGCCCGGGCCCGGGCCCGCCGGGCCCGGGCCCGGGCCC (Eterna round: R97, puzzle: Sensor, turn-off variant 1)	30.8	–	32.1	–	–	–
AAAUAAUAGAUAAAAUAAAACAUGAGGAUCACCCAUGUAGGCUGAUGAGGGUGAAACAAGCUUUUUGCUCGUCUUAU (puzzle: Sensor v3, turn-off variant 1)	–	–	–	154	560	197
CCAAGCUUAUUCAUUAACCACAUGAGGAUCACCCAUGUAUAGGCAAUUAUGACUGGGCAAUGUGGUGCUCGUCUUAU [Sensor-V1 #28] (Eterna round: R97, puzzle: Sensor, turn-off variant 1)	39.5	–	41.3	–	–	–
GGUGGUAUUGUUAGGAUAUGGCAUGCCCGAGGCGUCUAGAAGGGACAUGAGGAUCACCCAUGUCUAGAAUUAAU [Eternabot (L2) Solution 53] (Eterna round: R97, puzzle: Brourd's mod of Exclusion 4)	41.2	–	45.5	–	–	–
CGAAAGUUAGGAUAUGCCCGGAACGACAUGAGGAUCACCCAUGUUAGCAAGGGACCUGGCGCAGAAGGAACGGAUA [EX5 C.20] (Eterna round: R97, puzzle: Exclusion 5)	20.2	–	19.3	–	–	–
GACCAGGUAGGAUAUGCAGGGUAGGACUUGAGGAUCACCCAAGUGGCCAAAGUGCGUCCCGCAGAAGGGCCGAACC [Teararatbi] (Eterna round: R97, puzzle: Exclusion 5)	356	–	386	–	–	–
AAAAAGCGAGGAUAUACAGGAAAAGAAAAGAAAAGAAAAGCACAUGAGGAUCACCCAUGUAGAAGGCGCGAAAA [Exclusion 2 #3] (puzzle: Exclusion 2)	–	–	–	26.1	24.7	20.8
UAUGGUUAAGUCAGGAUAUACAUACAGAUAUCUGAGUAGAAGGGACAUGAGGAUCACCCAUGUAUGGUAGUGUU [Ex4 #54] (Eterna round: R97, puzzle: Brourd's mod of Exclusion 4)	169	–	76.3	–	–	–
UUAGUAUAGCAAGGAUAUGUUUAUGUAUAGUUGCCUCUUACAUGAGGAUCACCCAUGUUUAACUUACAGAAGGUGCAAUGAUUU [JR_ExcNG2_Sub033] (Eterna round: R96, puzzle: Exclusion NG 2)	279	108	137	–	–	–
AGAUGCUCAAGUCGACAUGAGGAUCACCCAUGUACAGUUAAUGAGGAUAUCCGAGAUAAAUAAUAGGAGAAGGUAUGAUCAUGA [Ex NG3 #5] (Eterna round: R96, puzzle: Exclusion NG 3)	86.7	175	59.5	–	–	–
UCGCUCCGUGUAGGAUAUCGUUGUAUUAUGCGGCGAGAAGGACAUGAGGAUCACCCAUGUAUGUUAUUAUCACGCGUGGCGCAA [Design 66] (Eterna round: R96, puzzle: Exclusion NG 1)	14.8	14.8	18.7	–	–	–
UAUUUACAUGAGGAUCACCCAUGUCAGGAUAUGUUUCUAUCGUCGAAAGACGAUAGUUGCAGAAGGGACAAUAU [LRO-Excl01-25 mod derived from EliFisker 4.24] (Eterna round: R97, puzzle: Exclusion 1)	94.1	–	48.5	–	–	–

Sequence	apparent KD of MS2 coat protein (input ligand: FMN 200 uM) [nM]	apparent KD of MS2 coat protein [1] [nM]	apparent KD of MS2 coat protein (input ligand: none) [nM]	apparent KD of MS2 coat protein [2] [nM]	apparent KD of MS2 coat protein [3] [nM]	apparent KD of MS2 coat protein [4] [nM]
CAUGCUUCGGCAUGUACAAGCUUUUUGCUCGUCUUAUUAACAUGAGGAUCACCCAUGUACAAGAGACCUCAUGUAUU [Sensor v3 - turn-off variant 2 - 11] (puzzle: Sensor v3, turn-off variant 2)	–	–	–	293	22.9	338
GUGGGUUACAUGAGGAUCACCCAUGUAUAGUGGGAAAAAAUAUAGGAUAUAAUAUAAAAAUUAUAUUAGAAGGAUAGAGACUAG [AK ExNG3-1] (Eterna round: R96, puzzle: Exclusion NG 3)	419	216	418	–	–	–
AAGAAACGAGGAUAUACAAUUGAGUGAGAGAGGGAAGUGUGACAUGAGGAUCACCCAUGUAGAAGGCGUAAGAG [JR_Exclu2_Sub085] (puzzle: Exclusion 2)	–	–	–	124	79.5	73.9
AAGAAACAUGAGGAUCACCCAUGUGAGGAUAUGAUGAAGAAAAGAAAAGAAAGAAGAUUCAGAAGGCACAAAGG [salish99-ex1_r3_055] (puzzle: Exclusion 1)	–	–	–	113	48.9	80.5
GUAUAUAGUGUGAGGAUAUGCUGGUCCUUGGAUCAGCAGAAGGCACAUGAGGAUCACCCAUGUAGUUUAUUUUA [Mat - Exclusion 4 - JL Mod - D3] (puzzle: Brourd's mod of Exclusion 4)	–	–	–	–	25.8	–
CUACUAGAGACGCGUGGGAACAUGAGGAUCACCCAUGUCAAUGGAGUUUAAACAGGCCCGUCGUUUUGCUCGUCGUG [Eternabot (L2) Solution 41] (Eterna round: R97, puzzle: Sensor, turn-off variant 1)	113	–	132	–	–	–
ACGAGCAGACGGAGAUCCAACAUGAGGAUCACCCAUGUCUGGAAAGCUUUUUGCUUGUCUUAUCCUCCUCUGUUAGC [Design #10] (Eterna round: R97, puzzle: Sensor, turn-off variant 1)	12.4	–	11.9	–	–	–
UUUAUAAUUUCAAUCUUCGCCAACAAACUUACGCUGGCCACAUGAGGAUCACCCAUGUUUUUUGUUCGUUUUAUUCU [Veorenxere] (Eterna round: R96, puzzle: Sensor v3, turn-off variant 2)	25	62.2	27.1	–	–	–
AGCGUCUGAGGAUAUGCAUCUUAUCAGUCCGUGCGUAAGCGACAUGAGGAUCACCCAUGUAGAAGGUAGAUGCG [Eternabot (L1) Solution 10] (Eterna round: R97, puzzle: Exclusion 2)	19.6	–	17.6	–	–	–
CCGGAAAUACAGGAUAUAGGAGUCGAUAGACUCCUAGAAGGGUAUACAUGAGGAUCACCCAUGUGUCCUACCGG [Fiskers Ex 6 - 70] (puzzle: Exclusion 6)	–	–	–	–	22.8	–
GUCGUGCGGCUUUGCUGUGCGGGUACAUGAGGAUCACCCAUGUAGGAUAUGGUGCGCUUUGCGUGCCAGAAGGGCGUGCGUUGG [salish99_ExNG3_r04_010] (Eterna round: R96, puzzle: Exclusion NG 3)	45.7	28	36.4	–	–	–
ACAUGAGGAUCACCCAUGUCCGGCUGGUCUGUUCCGGCUGUCGAGGAUAUAGUUCGGUGUUCGCGCUAGAAGGCGGGAGCUGGA [Aenatbe mod 52] (Eterna round: R96, puzzle: Exclusion NG 3)	150	104	123	–	–	–
GGCAUGUAAGGAUAUGCCACUGAGUGCUUUGCGCUCAGAAAGCAGAAGGUACAUGAGGAUCACCCAUGUGAUAA [jl-ex4-4.53 ViennaUCT mod] (Eterna round: R97, puzzle: Exclusion 4)	945	–	650	–	–	–
AAAUACCGGUGAGGAUAUUUUUAAUAGAACUUUAUGAUAUACAUGAGGAUCACCCAUGUUACUUUAAAGAAGGCAUCGGAUAAA [Mat - Exclusion NG 2 - Mod of JL - D88] (Eterna round: R96, puzzle: Exclusion NG 2)	–	12.1	–	–	–	–
GUGUAGUAAGGAUAUACAUGAGGAUCACCCAUGUGAGUAAGAUAGAAUAAGAUAAAGUGUAGAAGGUAUAGUGU [Excluse me!!! 16 - Jieux - Exclusion 3] (puzzle: Exclusion 3)	–	–	–	42.6	42.8	48.9
GAAUAGUGAGGAUAUACUUGCAGUGUACCUCGGGUGAUCUCACUUGAGGAUCACCCAAGUAGAAGGCGCGAGGG [EX2 #22] (Eterna round: R97, puzzle: Exclusion 2)	20.8	–	9.03	–	–	–
